This is an account of results in patent US20190330347A1 (TAIZHOU HANZHONG BIOPHARMACEUTICS, published 2019).

One assay has as its target T1, FcγRIIIa-Biotin (UniProt P08637 17-208, limits assumed, biotin (site not stated)).
T1 construct: also called CD16a
In words: Fortebio Octet BLI, FcγRIIIa-Biotin on SA sensor. An excerpt:
The data was collected with the Fortebio Data Acquisition 7.0 software and analyzed with the Fortebio Data Analysis 7.0 software.
Background: BLI is a label-free optical method that tracks binding on a fibre tip over time.

The next assay has as its target serum complement C1q (UniProt P02745 23-245; P02746 28-253; P02747 29-245). In words: Fortebio Octet BLI, H8L2 on FAB2G sensor, C1q in solution. An excerpt: Serum complement C1q can bind to the Fc fragment of IgG antibody, thus involving in complement-dependent cytotoxicity (CDC). The safety and efficacy of a therapeutic monoclonal antibody will be affected by the binding ability of the monoclonal antibody to the serum complement C1q.
After binding for 120 seconds, the PBST buffer was applied to the FAB2G sensor for disassociation, which was kept for 180 seconds. The data was collected with the Fortebio Data Acquisition 7.0 software and analyzed with the Fortebio Data Analysis 7.0 software.

Assay [1] has as its target T2, PD-1-his antigen (UniProt Q15116 25-167, limits assumed).
T2 construct: Human is implied, since cynomolgus and rat PD1 are called non-human antigens
In words: ELISA on coated PD-1-his; antibody at 1:3 dilution of 2 µg/ml. As to the method: (§1) An ELISA plate was coated with PD-1-his antigen in a concentration of 0.25 μg/ml (100 μl per well) by incubation at 4° C. overnight.
(§2) The ELISA plate coated with the PD-1-his antigen was blocked with 1% BSA in the PBS buffer at 37° C. for 2 hours and washed with 1 xPBST buffer containing 1% Tween-20 for three times, with gently patting to dryness.
(§3) The absorbance of solution in each well was measured with the microplate reader at a wavelength of 450 nm.
Background: An ELISA detects its analyte on a solid surface through an enzyme-linked reagent.

Assay [2] addresses T3, PD1 on the surface of cell membrane (293T cell line stably transfected with PD1) (UniProt Q15116 25-288, limits assumed).
T3 construct: whole, on cells
The assay can be described thus: FACS on 293T cells stably transfected with PD1. The protocol: Step f) Each group was centrifuged at 4000 r/min at a low temperature for 5 minutes, followed by washing with the PBS buffer once and adding 200 μl PBS for suspending, thus obtaining a suspension for on-line detection.

Assay [3] concerns the target T4, PD-1-hIgGFc antigen (UniProt Q15116 25-167, limits assumed). In words: competitive ELISA on coated PD-1-hIgGFc, competitor PDL2-his tag. As to the method: A 96-well ELISA plate was coated with PD-1-hIgGFc antigen in a concentration of 1.0 μg/ml (100 μl per well) by incubation at 4° C. overnight.
After the 96-well ELISA plate was washed with the PBST buffer for five times and gently patted to dryness, HRP-conjugated monoclonal mouse anti-his tag as a secondary antibody in 1:750 dilution (50 μl per well) was added for incubation at 37° C. for 1 hour.

The target of assay [4] is T2, PD-1-his antigen. The assay can be described thus: ELISA on coated PD-1-his. As to the method: as §1, §2, §3
Assay [5] has as its target T4, PD-1-hIgGFc antigen. In words: competitive ELISA on coated PD-1-hIgGFc, competitor PDL1-mIgG2aFc. As to the method: A 96-well ELISA plate was coated with PD-1-hIgGFc antigen in a concentration of 0.5 μg/ml (50 μl per well) by incubation at 4° C. overnight.
In assay [6] the target is T3, PD1 on the surface of cell membrane …. In words: FACS competition on 293T-PD1 cells, competitor PDL1-mFc 20 nM.
Assay [7] addresses T5, PD1-hFc of Cynomolgus monkey (Macaca fascicularis) (Cynomolgus monkey (Macaca fascicularis), UniProt B0LAJ3 25-170).
T5 construct: also called PD1 of Cynomolgus monkey
The assay can be described thus: ELISA on coated cynomolgus PD1-hFc.

T4 sequence (Q15116 25-167 limits assumed): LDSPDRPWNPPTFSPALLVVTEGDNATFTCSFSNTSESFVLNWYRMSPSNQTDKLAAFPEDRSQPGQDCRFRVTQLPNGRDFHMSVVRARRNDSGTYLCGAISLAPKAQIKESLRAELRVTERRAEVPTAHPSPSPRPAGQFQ
T2 sequence (Q15116 25-167 limits assumed): as above
T3 sequence (Q15116 25-288 limits assumed): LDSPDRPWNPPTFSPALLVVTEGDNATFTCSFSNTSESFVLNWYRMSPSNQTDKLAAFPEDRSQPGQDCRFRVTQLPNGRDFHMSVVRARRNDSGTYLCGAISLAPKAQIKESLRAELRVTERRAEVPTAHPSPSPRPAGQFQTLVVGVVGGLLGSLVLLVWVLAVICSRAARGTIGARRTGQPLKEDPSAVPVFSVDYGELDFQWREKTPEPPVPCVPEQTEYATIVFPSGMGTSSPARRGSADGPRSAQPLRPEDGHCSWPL
serum complement C1q, sequence (P02745 23-245 limits assumed, chain 1 of 3): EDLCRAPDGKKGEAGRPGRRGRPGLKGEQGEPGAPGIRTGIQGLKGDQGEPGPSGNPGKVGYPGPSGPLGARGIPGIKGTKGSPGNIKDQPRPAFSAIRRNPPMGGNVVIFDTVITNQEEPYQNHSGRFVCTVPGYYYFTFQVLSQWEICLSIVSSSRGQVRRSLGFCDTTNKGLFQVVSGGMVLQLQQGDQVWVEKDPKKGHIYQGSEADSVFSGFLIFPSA
serum complement C1q, sequence (P02746 28-253 limits assumed, chain 2 of 3): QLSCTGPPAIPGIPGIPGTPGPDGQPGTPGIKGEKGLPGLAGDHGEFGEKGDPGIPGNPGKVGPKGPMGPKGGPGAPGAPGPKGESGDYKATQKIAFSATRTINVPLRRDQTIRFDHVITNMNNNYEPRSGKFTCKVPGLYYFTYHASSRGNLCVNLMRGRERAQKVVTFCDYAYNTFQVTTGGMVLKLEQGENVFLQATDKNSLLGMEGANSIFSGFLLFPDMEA
serum complement C1q, sequence (P02747 29-245 limits assumed, chain 3 of 3): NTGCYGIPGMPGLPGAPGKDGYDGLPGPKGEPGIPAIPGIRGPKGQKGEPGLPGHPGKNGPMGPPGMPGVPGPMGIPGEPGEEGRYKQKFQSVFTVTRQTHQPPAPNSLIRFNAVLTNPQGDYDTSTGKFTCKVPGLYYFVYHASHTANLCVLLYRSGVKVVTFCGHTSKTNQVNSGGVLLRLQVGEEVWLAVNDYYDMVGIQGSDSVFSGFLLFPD
T1 sequence (P08637 17-208 limits assumed): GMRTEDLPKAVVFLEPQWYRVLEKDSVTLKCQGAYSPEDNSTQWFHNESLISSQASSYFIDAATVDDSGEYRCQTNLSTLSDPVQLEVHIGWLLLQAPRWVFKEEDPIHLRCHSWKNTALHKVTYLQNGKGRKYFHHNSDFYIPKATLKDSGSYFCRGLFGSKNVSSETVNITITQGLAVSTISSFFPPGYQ
T5 sequence (B0LAJ3 entry or part of it limits assumed, form in doubt): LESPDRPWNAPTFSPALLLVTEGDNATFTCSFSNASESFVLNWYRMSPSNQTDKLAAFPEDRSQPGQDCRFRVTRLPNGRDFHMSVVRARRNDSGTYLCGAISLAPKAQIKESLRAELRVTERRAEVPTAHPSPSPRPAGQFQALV

B1: humanized H8L2 antibody (IgG-like antibody H8L2 against PD-1) (antibody)
heavy: EVQLVQSGGGLVQPGGSLKLSCAASGFTFSSYGMSWVRQAPGKGLDWVATISGGGRDTYYPDSVKGRFTISRDNSKNNLYLQMNSLRAEDTALYYCARQKGEAWFAYWGQGTLVTVSSASTKGPSVFPLAPCSRSTSESTAALGCLVKDYFPEPVTVSWNSGALTSGVHTFPAVLQSSGLYSLSSVVTVPSSSLGTKTYTCNVDHKPSNTKVDKRVESKYGPPCPPCPAPEFLGGPSVFLFPPKPKDTLMITRTPEVTCVVVDVSQEDPEVQFNWYVDGVEVHNAKTKPREEQFNSTYRVVSVLTPLHQDWLNGKEYKCKVSNKGLPSSIEKTISKAKGQPREPQVYTLPPSQEEMTKNQVSLTCLVKGFYPSDIAVEWESNGQPENNYKTTPPVLDSDGSFFLYSRLTVDKSRWQEGNVFSCSVMHEALHAHYTQKSLSLSLGK
light: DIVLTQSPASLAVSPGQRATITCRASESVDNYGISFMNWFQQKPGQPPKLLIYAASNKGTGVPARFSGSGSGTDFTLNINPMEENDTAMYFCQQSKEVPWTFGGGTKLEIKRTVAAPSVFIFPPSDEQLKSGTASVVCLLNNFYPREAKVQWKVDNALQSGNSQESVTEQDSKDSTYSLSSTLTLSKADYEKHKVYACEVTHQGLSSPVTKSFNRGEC
notes: Expressed in 293 cells and purified on protein A; also called 18A10 H8L2
Broadly, the EC50 is the midpoint of the concentration-response curve. As for B1, the binding result with FcγRIIIa-Biotin is reported as “no binding (tested: 4000 nM)”; in the assay with serum complement C1q, “no binding (tested: 3.13 to 200 nM)”. Besides, the “absorbance at 450 nm” value with PD-1-his antigen [1] stood at 1.76. The EC50 in assay [2] was found to be 3.4 nM; with PD-1-hIgGFc antigen [3] it was 1.83 nM; in the assay with PD-1-his antigen [4], 0.04 nM; with PD-1-hIgGFc antigen [5] it was 0.474 nM; in assay [6], 19.6 nM; in [7], 0.219 nM.
